# Source: article PMC11286758, “The small CRL4^CSA ubiquitin ligase component DDA1 regulates transcription-coupled repair dynamics” (Nature Communications, 2024)
# Biological target: T1, CSA-DDB1 (human, UniProt Q13216 1-396; Q16531 1-1140)
# T1 construct: CSA, human, full-length coding gene; pAC8-CSA-Strep II clone; DDB1, human, full-length coding gene, synthesized and codon-optimized for insect cells; also called CSA/DDB1 complex; CSA-DDB1 alone; source: Sf9, co-expressed (biGBac), purified (Nickel-chelating sepharose, Resource Q, Superdex 200)
# Test: nano-differential scanning fluorimetry; complexes at 2 µM in 20 mM HEPES pH 7.5, 150 mM NaCl, 5% glycerol, 0.5 mM TCEP; Prometheus NT.48, 350/330 nm ratio, 1 °C/min from 20 to 90 °C; compared with CSA-DDB1 alone
# Conditions: both partners purified
# T1 sequence (Q13216 whole entry, chain 1 of 2): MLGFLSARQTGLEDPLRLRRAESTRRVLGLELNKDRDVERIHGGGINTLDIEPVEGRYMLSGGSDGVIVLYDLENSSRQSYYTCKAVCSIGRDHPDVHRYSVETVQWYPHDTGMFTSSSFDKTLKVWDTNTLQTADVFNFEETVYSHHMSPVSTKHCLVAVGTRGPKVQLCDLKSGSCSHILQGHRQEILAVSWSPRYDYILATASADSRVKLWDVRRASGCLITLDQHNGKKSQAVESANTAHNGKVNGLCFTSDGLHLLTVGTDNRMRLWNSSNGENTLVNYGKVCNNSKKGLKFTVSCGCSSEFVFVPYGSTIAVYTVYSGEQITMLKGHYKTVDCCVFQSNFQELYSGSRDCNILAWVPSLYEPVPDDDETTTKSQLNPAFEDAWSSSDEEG
# T1 sequence (Q16531 whole entry, chain 2 of 2): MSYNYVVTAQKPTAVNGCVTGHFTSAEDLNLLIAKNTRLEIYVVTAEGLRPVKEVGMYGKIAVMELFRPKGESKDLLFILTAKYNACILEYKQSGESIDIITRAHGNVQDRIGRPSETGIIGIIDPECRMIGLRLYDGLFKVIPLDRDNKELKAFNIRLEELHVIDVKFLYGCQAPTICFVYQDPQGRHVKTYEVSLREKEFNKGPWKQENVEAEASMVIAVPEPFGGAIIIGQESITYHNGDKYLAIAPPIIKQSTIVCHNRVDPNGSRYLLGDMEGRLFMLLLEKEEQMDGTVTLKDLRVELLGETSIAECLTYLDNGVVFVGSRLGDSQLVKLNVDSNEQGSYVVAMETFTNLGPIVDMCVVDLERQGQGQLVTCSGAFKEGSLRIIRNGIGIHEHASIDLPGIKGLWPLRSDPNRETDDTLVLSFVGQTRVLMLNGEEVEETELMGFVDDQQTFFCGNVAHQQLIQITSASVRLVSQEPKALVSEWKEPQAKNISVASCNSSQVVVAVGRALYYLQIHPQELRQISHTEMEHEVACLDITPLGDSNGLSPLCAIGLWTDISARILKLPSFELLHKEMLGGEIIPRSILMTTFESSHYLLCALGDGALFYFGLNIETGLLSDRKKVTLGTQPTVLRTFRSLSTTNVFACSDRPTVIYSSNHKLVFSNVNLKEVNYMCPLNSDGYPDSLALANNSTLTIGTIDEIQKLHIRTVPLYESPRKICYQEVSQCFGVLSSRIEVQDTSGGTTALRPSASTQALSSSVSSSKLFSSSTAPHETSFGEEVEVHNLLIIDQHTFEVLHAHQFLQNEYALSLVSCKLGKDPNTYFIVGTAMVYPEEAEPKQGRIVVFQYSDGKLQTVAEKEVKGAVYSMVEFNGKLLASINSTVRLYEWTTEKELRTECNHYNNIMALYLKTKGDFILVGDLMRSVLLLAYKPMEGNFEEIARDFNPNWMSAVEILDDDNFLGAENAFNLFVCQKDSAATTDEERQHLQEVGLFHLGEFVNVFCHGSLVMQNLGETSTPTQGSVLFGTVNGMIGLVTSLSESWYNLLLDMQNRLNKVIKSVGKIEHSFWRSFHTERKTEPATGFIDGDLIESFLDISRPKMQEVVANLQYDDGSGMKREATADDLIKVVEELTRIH
binder,measurement,value
"DDA1^1-52 (domain or fragment, DDA1, human, residues 1-52; Used as the complex CSA-DDB1-DDA1^1-52; also called DDA1 C-terminal truncation; DDA1Δ) not shown",binding result,binds
